Test system: interferon-stimulated genes (ISGs)
Test: ISG expression in human keratinocytes (HaCaT, primary foreskin) treated with FGF7, FGF10 and/or IFNα (qRT-PCR)
Type: cell-based
Settings: human primary foreskin keratinocytes and HaCaT, FGF7 10 ng/ml and IFNα 500 U/ml, 16 h
Description: FIG. 2F relates to serum-starved immortalized human keratinocytes (HaCaT cell line) that were treated for 6 h with FGF7, FGF10 (both 10 ng/ml) or vehicle (CTRL). RNA was analyzed by qRT-PCR for the expression of the indicated ISGs relative to RPLP0. Mean expression levels in CTRL cells were set to 1. Representative data from three experiments are shown. Scatter plot and mean values are shown in (A-D). Each dot represents a biological replicate.
FIGS. 3E and F pertain to confluent human primary foreskin keratinocytes and (E) or HaCaT cells (F) that were serum-starved for 24 h and treated with FGF7 (10 ng/ml) and/or IFNα (500 U/ml) for 16 h. Cells were analyzed for ISG mRNA levels by qRT-PCR relative to RPLP0. Mean expression levels in vehicle-treated (CTRL) cells were set to 1.
The human HaCaT keratinocyte cell line was cultured in DMEM (Sigma) supplemented with 10% FCS (Thermo Fisher). […]
Total RNA from isolated epidermis of mice or from total skin was purified with Trizol, followed by additional purification with the RNeasy Mini Kit, including on-column DNase treatment (Qiagen, Hilden, Germany). […] Relative gene expression was determined using the Roche LightCycler 480 SYBR Green system (Roche, Rotkreuz, Switzerland).

B1: FGF7: recombinant human FGF7, the classical ligand of FGFR2b (protein, UniProt P21781 32-194, looked up)
Fibroblast growth factor 7: CNDMTPEQMATNVNCSSPERHTRSYDYMEGGDIRVRRLFCRTQWYLRIDKRGKVKGTQEMKNNYNIMEIRTVAVGIVAIKGVESEFYLAMNKEGKLYAKKECNEDCNFKELILENHYNTYASAKWTHNGGEMFVALNQKGIPVRGKKTKKEQKTAHFLPMAIT
**Q.** For B1, which “increase in ISG expression in response to IFNα” value is on record?
**A.** The value was “reduced”.

— patent publication US20210322404A1, “FGFR REGULATION FOR THE TREATMENT OF VIRAL INFECTIONS” (ETH ZURICH, priority 2016, published 2021)
